2 substances from paper PMC6594998 can be followed below.

Usually Kd stands for a measure of binding affinity in units of concentration. A lower Kd goes with tighter binding. By stoichiometry N is commonly meant a count of units in the complex or per binding partner.

The target of assay [1] is Nme1Cas9 (purified, full length) (N. meningitidis). Nature of the assay: ITC; 100 μM AcrIIC2Nme titrated into 10 μM Nme1Cas9; 20 °C; 300 mM NaCl, 20 mM Tris pH 7.5; One Set of Sites model. (In general: Isothermal titration calorimetry measures the heat released or taken up as one component is titrated into another.)
For assay [2] the target is unchanged.
In assay [3] the target is AcrIIC2Nme (purified, pET28a-Sumo construct) (not stated (suffix Nme; its cognate Cas9 is from N. meningitidis)). Nature of the assay: crystal structure; Nme1Cas9 and AcrIIC2Nme mixed 1:10, complex purified by gel filtration; hanging drop, 16 °C; Nme1Cas9 digested during crystallization; 2.6 Å. A general note: In gel filtration, larger molecules generally elute earlier.
In assay [4] the target is AcrIIC2Nme (purified, pHAT4 construct with N-terminal 6-His tag) (not stated (suffix Nme; its cognate Cas9 is from N. meningitidis)). Nature of the assay: crystal structure; AcrIIC2Nme alone; Se-SAD; 2.5 Å.

A value given as a limit tells only on which side of the number the result lay.

Substance “AcrIIC2Nme (purified, pET28a-Sumo construct) (natural protein)” returned a dissociation constant (Kd) in assay [1] of 200 nM. In assay [2], this substance came in with an in vitro DNA cleavage by Nme1Cas9; sgRNA and AcrIIC2Nme added simultaneously; excess of AcrIIC2Nme needed to block cleavage of more than 10 fold excess. In assay [3], the stoichiometry N was 2.

As for “AcrIIC2Nme (purified, pHAT4 construct with N-terminal 6-His tag) (natural protein)”, the stoichiometry N in assay [4] came out at 2.
